Assay results published in PMC9418424.

Target: (AcA4)2KD amphiphilic peptide ((Ac-Ala-Ala-Ala-Ala)2-Lys-Asp-OH)
Experiment: dynamic light scattering

critical aggregation concentration: 0.8 mM
Substance: (AcA4)2KD amphiphilic peptide ((Ac-Ala-Ala-Ala-Ala)2-Lys-Asp-OH)
